Results as given in patent EP4484444A1.

Molecular target: CPIII-Long (model substrate derived from procollagen III)
Assay: cell-based or functional assay

Substance: human PCPE-1 fused to a C-terminal 8His tag (from UniProt Q15113 26-449)
- enhancement factor of CPIII-Long cleavage by BMP-1 with 4 equivalents: > 3
- enhancement factor of CPIII-Long processing by BMP-1: 1.7
